From article PMC12416549 (2024)

T1: TNFR1 (Homo sapiens, UniProt P19438)
T1 chain: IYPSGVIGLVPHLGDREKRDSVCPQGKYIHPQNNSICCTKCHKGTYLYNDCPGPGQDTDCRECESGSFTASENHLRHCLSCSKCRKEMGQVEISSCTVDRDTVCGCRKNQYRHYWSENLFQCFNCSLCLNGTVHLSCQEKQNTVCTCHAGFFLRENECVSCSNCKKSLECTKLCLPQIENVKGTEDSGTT


Biological target: T1, TNFR1
Test: yeast display SC50

Binder	apparent Kd (screen)
A30N (designed binder) SMEEEVEKAAKEYEKKKKEAIEKHLEKLKNKDKEAAERFLKELEEAAKEYAKDEAKTMSEEEAKRRAKKYKEKVLLSELSEEEQKEIKEAEEKLVRTILKYVEEAAK	0.79 nM
V6C (designed binder) SMEEECEKAAKEYEKKKKEAIEKHLEKLKAKDKEAAERFLKELEEAAKEYAKDEAKTMSEEEAKRRAKKYKEKVLLSELSEEEQKEIKEAEEKLVRTILKYVEEAAK	1.27 nM
D32Q (designed binder) SMEEEVEKAAKEYEKKKKEAIEKHLEKLKAKQKEAAERFLKELEEAAKEYAKDEAKTMSEEEAKRRAKKYKEKVLLSELSEEEQKEIKEAEEKLVRTILKYVEEAAK	1.16 nM
S1L (designed binder) LMEEEVEKAAKEYEKKKKEAIEKHLEKLKAKDKEAAERFLKELEEAAKEYAKDEAKTMSEEEAKRRAKKYKEKVLLSELSEEEQKEIKEAEEKLVRTILKYVEEAAK	1.4 nM
E45V (designed binder) SMEEEVEKAAKEYEKKKKEAIEKHLEKLKAKDKEAAERFLKELEVAAKEYAKDEAKTMSEEEAKRRAKKYKEKVLLSELSEEEQKEIKEAEEKLVRTILKYVEEAAK	1.86 nM
E5D (designed binder) SMEEDVEKAAKEYEKKKKEAIEKHLEKLKAKDKEAAERFLKELEEAAKEYAKDEAKTMSEEEAKRRAKKYKEKVLLSELSEEEQKEIKEAEEKLVRTILKYVEEAAK	0.653 nM
A30S (designed binder) SMEEEVEKAAKEYEKKKKEAIEKHLEKLKSKDKEAAERFLKELEEAAKEYAKDEAKTMSEEEAKRRAKKYKEKVLLSELSEEEQKEIKEAEEKLVRTILKYVEEAAK	0.718 nM
L28Y (designed binder) SMEEEVEKAAKEYEKKKKEAIEKHLEKYKAKDKEAAERFLKELEEAAKEYAKDEAKTMSEEEAKRRAKKYKEKVLLSELSEEEQKEIKEAEEKLVRTILKYVEEAAK	0.446 nM
L40F (designed binder) SMEEEVEKAAKEYEKKKKEAIEKHLEKLKAKDKEAAERFFKELEEAAKEYAKDEAKTMSEEEAKRRAKKYKEKVLLSELSEEEQKEIKEAEEKLVRTILKYVEEAAK	0.869 nM
D32H (designed binder) SMEEEVEKAAKEYEKKKKEAIEKHLEKLKAKHKEAAERFLKELEEAAKEYAKDEAKTMSEEEAKRRAKKYKEKVLLSELSEEEQKEIKEAEEKLVRTILKYVEEAAK	0.718 nM
K31Y (designed binder) SMEEEVEKAAKEYEKKKKEAIEKHLEKLKAYDKEAAERFLKELEEAAKEYAKDEAKTMSEEEAKRRAKKYKEKVLLSELSEEEQKEIKEAEEKLVRTILKYVEEAAK	0.49 nM

The next lines start with the values.

apparent Kd (screen)	Binder
1.05 nM	K93L (designed binder) SMEEEVEKAAKEYEKKKKEAIEKHLEKLKAKDKEAAERFLKELEEAAKEYAKDEAKTMSEEEAKRRAKKYKEKVLLSELSEEEQKEIKEAEELLVRTILKYVEEAAK
3.3 nM	I87C (designed binder) SMEEEVEKAAKEYEKKKKEAIEKHLEKLKAKDKEAAERFLKELEEAAKEYAKDEAKTMSEEEAKRRAKKYKEKVLLSELSEEEQKECKEAEEKLVRTILKYVEEAAK
6.43 nM	L79W (designed binder) SMEEEVEKAAKEYEKKKKEAIEKHLEKLKAKDKEAAERFLKELEEAAKEYAKDEAKTMSEEEAKRRAKKYKEKVLLSEWSEEEQKEIKEAEEKLVRTILKYVEEAAK
0.653 nM	K48M (designed binder) SMEEEVEKAAKEYEKKKKEAIEKHLEKLKAKDKEAAERFLKELEEAAMEYAKDEAKTMSEEEAKRRAKKYKEKVLLSELSEEEQKEIKEAEEKLVRTILKYVEEAAK
5.84 nM	S80E (designed binder) SMEEEVEKAAKEYEKKKKEAIEKHLEKLKAKDKEAAERFLKELEEAAKEYAKDEAKTMSEEEAKRRAKKYKEKVLLSELEEEEQKEIKEAEEKLVRTILKYVEEAAK
2.73 nM	K107C (designed binder) SMEEEVEKAAKEYEKKKKEAIEKHLEKLKAKDKEAAERFLKELEEAAKEYAKDEAKTMSEEEAKRRAKKYKEKVLLSELSEEEQKEIKEAEEKLVRTILKYVEEAAC
0.49 nM	S77H (designed binder) SMEEEVEKAAKEYEKKKKEAIEKHLEKLKAKDKEAAERFLKELEEAAKEYAKDEAKTMSEEEAKRRAKKYKEKVLLHELSEEEQKEIKEAEEKLVRTILKYVEEAAK
1.05 nM	K64I (designed binder) SMEEEVEKAAKEYEKKKKEAIEKHLEKLKAKDKEAAERFLKELEEAAKEYAKDEAKTMSEEEAIRRAKKYKEKVLLSELSEEEQKEIKEAEEKLVRTILKYVEEAAK
1.69 nM	E61K (designed binder) SMEEEVEKAAKEYEKKKKEAIEKHLEKLKAKDKEAAERFLKELEEAAKEYAKDEAKTMSEKEAKRRAKKYKEKVLLSELSEEEQKEIKEAEEKLVRTILKYVEEAAK
26.9 nM	A63C (designed binder) SMEEEVEKAAKEYEKKKKEAIEKHLEKLKAKDKEAAERFLKELEEAAKEYAKDEAKTMSEEECKRRAKKYKEKVLLSELSEEEQKEIKEAEEKLVRTILKYVEEAAK
2.73 nM	K68W (designed binder) SMEEEVEKAAKEYEKKKKEAIEKHLEKLKAKDKEAAERFLKELEEAAKEYAKDEAKTMSEEEAKRRAWKYKEKVLLSELSEEEQKEIKEAEEKLVRTILKYVEEAAK
0.446 nM	K88D (designed binder) SMEEEVEKAAKEYEKKKKEAIEKHLEKLKAKDKEAAERFLKELEEAAKEYAKDEAKTMSEEEAKRRAKKYKEKVLLSELSEEEQKEIDEAEEKLVRTILKYVEEAAK
0.446 nM	E83I (designed binder) SMEEEVEKAAKEYEKKKKEAIEKHLEKLKAKDKEAAERFLKELEEAAKEYAKDEAKTMSEEEAKRRAKKYKEKVLLSELSEEIQKEIKEAEEKLVRTILKYVEEAAK
2.48 nM	L76E (designed binder) SMEEEVEKAAKEYEKKKKEAIEKHLEKLKAKDKEAAERFLKELEEAAKEYAKDEAKTMSEEEAKRRAKKYKEKVLESELSEEEQKEIKEAEEKLVRTILKYVEEAAK
0.79 nM	E62H (designed binder) SMEEEVEKAAKEYEKKKKEAIEKHLEKLKAKDKEAAERFLKELEEAAKEYAKDEAKTMSEEHAKRRAKKYKEKVLLSELSEEEQKEIKEAEEKLVRTILKYVEEAAK
